In article PMC10096250, “Combined action of albumin and heparin regulates lipoprotein lipase oligomerization, stability, and ligand interactions” (PLOS ONE, 2023):
Blank lines part the entries; values can stand above or below the binder they belong to.

B1: Bovine lipoprotein lipase (enzyme, UniProt P11151 29-478, looked up)
chain: DRITGGKDFRDIESKFALRTPEDTAEDTCHLIPGVTESVANCHFNHSSKTFVVIHGWTVTGMYESWVPKLVAALYKREPDSNVIVVDWLSRAQQHYPVSAGYTKLVGQDVAKFMNWMADEFNYPLGNVHLLGYSLGAHAAGIAGSLTNKKVNRITGLDPAGPNFEYAEAPSRLSPDDADFVDVLHTFTRGSPGRSIGIQKPVGHVDIYPNGGTFQPGCNIGEALRVIAERGLGDVDQLVKCSHERSVHLFIDSLLNEENPSKAYRCNSKEAFEKGLCLSCRKNRCNNMGYEINKVRAKRSSKMYLKTRSQMPYKVFHYQVKIHFSGTESNTYTNQAFEISLYGTVAESENIPFTLPEVSTNKTYSFLLYTEVDIGELLMLKLKWISDSYFSWSNWWSSPGFDIGKIRVKAGETQKKVIFCSREKMSYLQKGKSPVIFVKCHDKSLNRKSG
notes: lipoprotein lipase (LPL), bovine, purified from bovine milk; In the RICS experiments 10 nM of the LPL carried ATTO610 (NHS ester labelling) and 190 nM was unlabelled; it says that most experiments were done with bovine LPL; also called bLPL; bovine LPL; source: purified from bovine milk

What was measured:
[1] = biological target: T1, Bovine serum albumin (bovine, UniProt P02769 25-607); assay: ITC; 752 μM BSA in the syringe titrated (38 injections) into 1.695 μM bLPL with 10 IU/ml heparin; 20 mM HEPES, 150 mM NaCl, pH 7.4; 25°C; apparent KD of the initial binding phase; conditions: both partners purified
T1 construct: serum albumin, bovine; also called BSA; source: bought: Sigma Aldrich (#A7906)

[2] = biological target: T1, Bovine serum albumin; assay: not stated; equilibrium dissociation constant of the LPL-albumin complex as given in the introduction; experiment not named
[3] = biological target: B1
[4] = biological target: B1; assay: cell-based or functional assay
[5] = biological target: T2, Human serum albumin (human, UniProt P02768 25-609); assay: SPR; nANGPTL4 immobilised; HSA at various concentrations flowed over; plateau values plotted against HSA concentration after subtracting non-specific binding; conditions: both partners purified
T2 construct: serum albumin, human; also called HSA
T2 sequence (P02768 25-609): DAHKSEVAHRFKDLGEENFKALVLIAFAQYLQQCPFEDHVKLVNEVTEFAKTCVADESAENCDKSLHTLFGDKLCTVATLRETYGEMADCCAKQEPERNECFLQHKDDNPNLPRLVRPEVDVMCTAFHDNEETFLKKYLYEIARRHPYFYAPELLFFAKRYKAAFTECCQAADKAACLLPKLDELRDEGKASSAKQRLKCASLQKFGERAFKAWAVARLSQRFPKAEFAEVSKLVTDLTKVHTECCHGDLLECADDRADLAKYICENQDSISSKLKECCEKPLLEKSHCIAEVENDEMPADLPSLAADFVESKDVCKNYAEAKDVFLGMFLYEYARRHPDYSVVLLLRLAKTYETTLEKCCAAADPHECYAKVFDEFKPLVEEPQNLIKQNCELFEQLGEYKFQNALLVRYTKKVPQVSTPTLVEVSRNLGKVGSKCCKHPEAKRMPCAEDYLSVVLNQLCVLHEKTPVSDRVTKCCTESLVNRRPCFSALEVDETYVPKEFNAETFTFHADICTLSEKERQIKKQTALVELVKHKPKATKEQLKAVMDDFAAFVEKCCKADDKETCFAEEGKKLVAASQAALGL

T1 sequence (P02769 25-607): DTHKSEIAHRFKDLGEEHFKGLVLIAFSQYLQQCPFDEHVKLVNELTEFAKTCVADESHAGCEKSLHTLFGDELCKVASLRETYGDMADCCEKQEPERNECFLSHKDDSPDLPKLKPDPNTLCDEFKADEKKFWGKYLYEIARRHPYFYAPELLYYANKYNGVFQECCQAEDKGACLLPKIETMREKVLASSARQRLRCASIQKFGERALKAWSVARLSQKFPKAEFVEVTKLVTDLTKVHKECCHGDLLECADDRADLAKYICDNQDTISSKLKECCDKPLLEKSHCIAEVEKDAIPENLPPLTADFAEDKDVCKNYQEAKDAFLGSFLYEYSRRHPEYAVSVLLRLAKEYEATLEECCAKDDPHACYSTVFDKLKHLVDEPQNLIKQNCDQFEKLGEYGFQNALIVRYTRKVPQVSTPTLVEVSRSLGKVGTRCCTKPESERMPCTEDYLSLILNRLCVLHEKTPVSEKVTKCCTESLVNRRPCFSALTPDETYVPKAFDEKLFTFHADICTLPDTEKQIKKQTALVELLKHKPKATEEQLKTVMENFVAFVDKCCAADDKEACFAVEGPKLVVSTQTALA

Binder: B1
Kd [1]: 12.6 µM
Kd [2]: 30 to 70 µM

residual LPL activity (ITC, human plasma) after 130 min of 200 nM LPL with 1 μM ANGPTL4 in the presence of both heparin and BSA [3]: 35%
residual LPL activity (ITC, human plasma) after 130 min of 200 nM LPL with 1 μM ANGPTL4 in the presence of heparin or BSA alone [3]: 55%
B2: Full-length ANGPTL4 (natural protein)
chain: GPVQSKSPRFASWDEMNVLAHGLLQLGQGLREHAERTRSQLSALERRLSACGSACQGTEGSTDLPLAPESRVDPEVLHSLQTQLKAQNSRIQQLFHKVAQQQRHLEKQHLRIQHLQSQFGLLDHKHLDHEVAKPARRKRLPEMAQPVDPAHNVSRLHRLPRDCQELFQVGERQSGLFEIQPQGSPPFLVNCKMTSDGGWTVIQRRHDGSVDFNRPWEAYKAGFGDPHGEFWLGLEKVHSITGDRNSRLAVQLRDWDGNAELLQFSVHLGGEDTAYSLQLTAPVAGQLGATTVPPSGLSVPFSTWDQDHDLRRDKNCAKSLSGGWWFGTCSHSNLNGQYFRSIPQQRQKLKKGIFWKTWRGRYYPLQATTMLIQPMAAEAAS

inactivation rate constant (ki) of LPL by 100 nM nANGPTL4 during lipolysis of CM/VLDL (ITC), at 10 or 50 mg/ml BSA against 2 mg/ml BSA [4]: ~1.6 fold
Kd [5]: 500 ± 51 µM
B3: Recombinant N-terminal domain of ANGPTL4 (nANGPTL4^26-184) (domain or fragment, UniProt Q9BY76 26-184, looked up)
chain: GPVQSKSPRFASWDEMNVLAHGLLQLGQGLREHAERTRSQLSALERRLSACGSACQGTEGSTDLPLAPESRVDPEVLHSLQTQLKAQNSRIQQLFHKVAQQQRHLEKQHLRIQHLQSQFGLLDHKHLDHEVAKPARRKRLPEMAQPVDPAHNVSRLHRL
notes: angiopoietin-like protein 4 (ANGPTL4), N-terminal domain, residues 26-184
